Consider eleven molecules from US20220356230A1 (published 2022).

Assay [1] addresses T1, MERS-CoV (SARS-CoV-2) Spike Protein (ECD, aa 1-1297, His Tag) (Sino 40069-[change]) (MERS-CoV, UniProt K9N5Q8 18-1297).
T1 sequence: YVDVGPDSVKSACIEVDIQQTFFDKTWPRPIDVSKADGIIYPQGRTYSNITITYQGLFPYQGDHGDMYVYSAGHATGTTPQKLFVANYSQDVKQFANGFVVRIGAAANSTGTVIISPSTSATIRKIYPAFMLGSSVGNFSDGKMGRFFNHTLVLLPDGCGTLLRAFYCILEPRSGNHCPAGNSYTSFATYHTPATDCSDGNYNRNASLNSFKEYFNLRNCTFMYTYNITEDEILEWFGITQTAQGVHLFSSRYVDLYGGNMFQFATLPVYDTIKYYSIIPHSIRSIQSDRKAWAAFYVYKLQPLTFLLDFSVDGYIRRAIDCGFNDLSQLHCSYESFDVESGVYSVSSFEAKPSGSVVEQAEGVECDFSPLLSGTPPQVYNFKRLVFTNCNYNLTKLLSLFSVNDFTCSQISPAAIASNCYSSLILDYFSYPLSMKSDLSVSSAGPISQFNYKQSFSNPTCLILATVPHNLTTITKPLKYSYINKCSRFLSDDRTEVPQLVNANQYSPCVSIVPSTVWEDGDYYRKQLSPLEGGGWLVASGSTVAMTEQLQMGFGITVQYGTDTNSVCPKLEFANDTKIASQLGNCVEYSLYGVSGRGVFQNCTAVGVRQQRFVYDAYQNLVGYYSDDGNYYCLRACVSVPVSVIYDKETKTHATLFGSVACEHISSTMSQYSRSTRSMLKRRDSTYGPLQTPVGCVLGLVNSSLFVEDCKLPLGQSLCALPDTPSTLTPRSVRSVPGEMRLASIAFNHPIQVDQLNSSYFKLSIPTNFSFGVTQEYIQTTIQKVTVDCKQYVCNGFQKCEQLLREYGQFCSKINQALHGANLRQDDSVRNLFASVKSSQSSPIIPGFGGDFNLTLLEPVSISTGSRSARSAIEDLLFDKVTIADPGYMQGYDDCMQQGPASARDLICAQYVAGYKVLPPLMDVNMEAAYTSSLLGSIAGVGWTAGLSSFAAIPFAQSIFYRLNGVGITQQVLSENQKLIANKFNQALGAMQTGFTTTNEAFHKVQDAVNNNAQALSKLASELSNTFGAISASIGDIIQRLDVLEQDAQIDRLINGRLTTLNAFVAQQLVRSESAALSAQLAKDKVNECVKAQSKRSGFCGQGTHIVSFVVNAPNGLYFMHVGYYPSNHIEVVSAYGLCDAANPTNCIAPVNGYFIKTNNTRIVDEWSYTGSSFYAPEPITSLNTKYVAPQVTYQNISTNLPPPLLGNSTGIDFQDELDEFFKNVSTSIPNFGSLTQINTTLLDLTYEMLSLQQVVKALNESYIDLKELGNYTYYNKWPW
The assay is described as follows: Luminex bead binding, antigen on microspheres, antibody supernatant.

Assay [2] concerns the target T2, MERS-CoV (SARS-CoV-2) Spike Protein S2 (aa 726-1296, His Tag) (Sino 40070-[change]) (MERS-CoV, UniProt K9N5Q8 726-1296).
T2 sequence: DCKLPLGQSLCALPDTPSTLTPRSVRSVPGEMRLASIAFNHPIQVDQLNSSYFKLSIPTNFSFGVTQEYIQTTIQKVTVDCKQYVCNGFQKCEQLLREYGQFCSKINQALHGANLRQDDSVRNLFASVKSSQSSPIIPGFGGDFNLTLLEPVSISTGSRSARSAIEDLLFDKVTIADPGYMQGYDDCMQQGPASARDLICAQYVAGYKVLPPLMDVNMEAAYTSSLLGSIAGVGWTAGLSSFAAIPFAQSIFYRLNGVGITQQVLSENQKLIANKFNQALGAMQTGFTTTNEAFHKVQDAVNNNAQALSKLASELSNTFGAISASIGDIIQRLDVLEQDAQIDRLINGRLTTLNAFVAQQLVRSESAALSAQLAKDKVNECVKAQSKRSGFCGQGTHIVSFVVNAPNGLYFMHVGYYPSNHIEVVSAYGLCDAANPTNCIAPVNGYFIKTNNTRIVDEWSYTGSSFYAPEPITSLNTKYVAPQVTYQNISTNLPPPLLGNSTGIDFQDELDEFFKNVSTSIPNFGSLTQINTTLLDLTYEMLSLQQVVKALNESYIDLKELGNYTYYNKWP
The description is as above.

The target of assay [3] is Human SARS Coronavirus Spike S1 Subunit Protein (His Tag) (Sino 40150-V08B1) (Human SARS Coronavirus, UniProt P59594 14-667). Described as above.
The target of assay [4] is T3, MERS-CoV (NCoV/Novel coronavirus) Spike Protein fragment (RBD, aa 367-606, His Tag) (Sino 40071-V08B1) (MERS-CoV, UniProt K9N5Q8 367-606).
T3 sequence: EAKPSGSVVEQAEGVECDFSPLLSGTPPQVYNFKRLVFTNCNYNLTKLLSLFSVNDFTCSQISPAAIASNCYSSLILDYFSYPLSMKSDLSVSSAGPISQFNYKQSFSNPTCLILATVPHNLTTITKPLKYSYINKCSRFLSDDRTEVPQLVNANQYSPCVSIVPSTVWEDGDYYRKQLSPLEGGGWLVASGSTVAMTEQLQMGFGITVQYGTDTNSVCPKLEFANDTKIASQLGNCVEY
In words: Luminex bead assay, supernatant.

Assay [5] deals with T4, MERS-CoV (NCoV/Novel coronavirus) Spike Protein S1 Protein (aa 1-725, His Tag) (Sino 40069-V08B1) (MERS-CoV, UniProt K9N5Q8 18-725).
T4 sequence: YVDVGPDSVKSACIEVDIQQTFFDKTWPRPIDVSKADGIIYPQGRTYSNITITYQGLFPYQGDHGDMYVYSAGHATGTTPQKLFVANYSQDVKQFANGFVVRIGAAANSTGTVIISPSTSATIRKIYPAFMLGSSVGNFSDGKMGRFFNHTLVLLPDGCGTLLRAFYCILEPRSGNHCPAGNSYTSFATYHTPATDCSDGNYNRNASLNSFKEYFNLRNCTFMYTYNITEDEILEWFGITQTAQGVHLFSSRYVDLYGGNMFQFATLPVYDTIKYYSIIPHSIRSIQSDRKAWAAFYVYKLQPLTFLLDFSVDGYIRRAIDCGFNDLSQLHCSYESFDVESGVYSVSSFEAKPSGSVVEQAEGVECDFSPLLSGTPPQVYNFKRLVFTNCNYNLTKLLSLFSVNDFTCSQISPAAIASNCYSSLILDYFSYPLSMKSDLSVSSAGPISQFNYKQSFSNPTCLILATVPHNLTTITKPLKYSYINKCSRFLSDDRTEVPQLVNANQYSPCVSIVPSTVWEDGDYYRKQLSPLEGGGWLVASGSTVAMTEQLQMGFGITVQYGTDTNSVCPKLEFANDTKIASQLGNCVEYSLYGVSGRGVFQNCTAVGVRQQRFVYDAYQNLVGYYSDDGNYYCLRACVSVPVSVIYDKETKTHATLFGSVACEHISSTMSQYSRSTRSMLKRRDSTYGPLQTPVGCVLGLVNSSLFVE
In words: Luminex bead assay, supernatant.

B1: mAb10987 (antibody, V domains shown)
VH: QVQLVESGGGVVQPGRSLRLSCAASGFTFSNYAMYWVRQAPGKGLEWVAVISYDGSNKYYADSVKGRFTISRDNSKNTLYLQMNSLRTEDTAVYYCASGSDYGDYLLVYWGQGTLVTVSS
VL: QSALTQPASVSGSPGQSITISCTGTSSDVGGYNYVSWYQQHPGKAPKLMIYDVSKRPSGVSNRFSGSKSGNTASLTISGLQSEDEADYYCNSLTSISTWVFGGGTKLTVLG
For B1, the MFI turned out to be 15 MFI in assay [1] and 23 MFI in assay [2].

B2: mAb10989 (antibody, V domains shown)
VH: QVQLVQSGAEVKKPGASVKVSCKASGYIFTGYYMHWVRQAPGQGLEWMGWINPNSGGANYAQKFQGRVTLTRDTSITTVYMELSRLRFDDTAVYYCARGSRYDWNQNNWFDPWGQGTLVTVSS
VL: QSALTQPASVSGSPGQSITISCTGTSSDVGTYNYVSWYQQHPGKAPKLMIFDVSNRPSGVSDRFSGSKSGNTASLTISGLQAEDEADYYCSSFTTSSTVVFGGGTKLTVLG
In the case of B2, in assay [3], the MFI came to 21 MFI.

B3: mAb10967 (antibody, V domains shown)
VH: EVQLVESGGGLVQPGGSLRLSCAASGFTVSSNYMSWVRQAPGKGLEWVSVIYPGGSTFYADSVKGRFTISRDNSKNTLYLQMNSLRAEDTAVYYCARDQRDFAWGQGTLVTVSS
VL: DIQMTQSPSSLSASVGDRVTITCQASQDISNYLNWYQQKPGKAPKLLIYDASNLETGVPSRFSGSGSGTDFTFTISGLQPEDIATYYCQQYDNLPPTFGQGTRLEIKR
In assay [3], B3 gave an MFI of 21 MFI.

B4: mAb10954 (antibody, V domains shown)
VH: EVQLVESGGGLVQPGGSLRLSCAASGITVSSNYMSWVRQAPGKGLEWVSLIYSGGSTYYADSVKGRFTISRDNSKNTLYLQMNSLRVEDTAVYYCARDHGMAAAGYNYWGQGTLVTVSS
VL: DIQMTQSPSSLSASVGDRVTITCQASQDINKYLNWYQQKPGKAPKLLIYDASNLETGVPSRFSGSGSGTDFTFTINSLQPEDFATYFCQQYDNLPPAFGQGTKVEIKR
As for B4, the MFI in assay [3] is 15 MFI.

B5: mAb10971 (antibody, V domains shown)
VH: EVQLVESGGGLIQPGGSLRLSCAASGVTVSSNYMSWVRQAPGKGLEWVSVIYSGGSTFYSDSVKGRFSISRDNSKNTLYLQMNSLRAEDTAVYYCARDLYYYGMDVWGQGTTVTVSS
VL: DIQLTQSPSFLSASVGDRVTITCRASQGISTYLAWYQQKPGKAPKLLIYAASTLQSGVPSRFSGSGSGTEFTLTISSLQPEDFATYYCQQLDSYPGLTFGGGTKVEIKR
For B5, the MFI was 20 MFI in assay [3], 15 MFI in assay [1] and 13 MFI in assay [2].

B6: mAb10964 (antibody, V domains shown)
VH: QVQLQESGPGLVKPSETLSLTCTVSGGSINNYYWIWIRQPPGKGLEWIGYIYHSGSTNYNPSLKSRVTISVDTSKNQFSLKVSSVTAADTAVYYCANMVRGVYEDDYWGQGTLVTVSS
VL: DIQMTQSPSSLSASVGDRVTITCRASQSISNYLNWYQQKPGKAPKLLIFAASSLRSGVPSRFSGSGSGTDFTLTISSLHPEDFATYYCQQNYNTPLTFGPGTKVDIKR
As to B6, the MFI in assay [3] is 5190 MFI; in assay [1], 15 MFI.

B7: mAb10969 (antibody, V domains shown)
VH: QVQLVESGGGVVQPGRSLRLSCAASGFTFSSYAMHWVRQAPGKGLEWVAVISYDGSNKYYADSVKGRFTISRDNSKNTLYLQMNSLRAEDTAVYYCARDGRTITMVRGVIDDAFDIWGQGTMVTVSS
VL: not shown
With B7, the MFI in assay [3] is 20 MFI; in assay [1], 16 MFI; in assay [2] it was 20 MFI.

B8: mAb10965 (antibody, V domains shown)
VH: EVQLVESGGGLIQPGGSLRLSCAASVFTVSYNYMSWVRQAPGKGLEWVSVIYSGGSTYYADSVKGRFTISRDNSKNTLYLQMNSLRAEDTAVYYCARALPGWGGSFEYFDYWGQGTLVTVSS
VL: not shown
In assay [3], B8 yielded an MFI of 16 MFI.

B9: mAb10966 (antibody, V domains shown)
VH: EVQLVESGGGLVQPGGSLRLSCAASGLTVSSNYMSWVRQAPGKGLEWVSVIYSGGSTFYADSVKGRFTISRDNSKNTLYLQMNSLRPEDTAVYYCAREGRIAATGYGMDVWGQGTTVTVSS
VL: not shown
With B9, the MFI in assay [3] worked out at 20 MFI; in assay [1] it was 16 MFI; in assay [2], 16 MFI.

B10: mAb10986 (antibody, V domains shown)
VH: EVQLVESGGGLVQPGGSLRLSCAASEFTVSSNYMSWVRQAPGKGLEWVSVIYSGGSTFYADSVKGRFTISRDNSKNTLYLQMNSLRAEDTAVYYCARALPYGDLHFDYWGQGTLVTVSS
VL: QSVLTQPPSVSGAPGQRVTISCTGSSSNIGTGYDVHWYQQLPGTAPKLLIYGNTNRPSGVPDRFSGSKSGTSASLAITGLQAEDEADYYCQSYDSSLSDSYVFGTGTKVTVLG
B10: the “Binding signal (MFI)” value was 27 MFI in assay [4] and 20 MFI in assay [5].

B11: mAb10970 (antibody, V domains shown)
VH: EVQLVESGGGLVQPGGSLRLSCAASGFTVSSNYMSWVRQAPGKGLEWVSVIYSGGSTYYADSVKGRFTISRDNSKNTLYLQMNRLRADDTAVYYCVRDPVGRYYYGMDVWGQGTTVTVSS
VL: not shown
Consider B11, for which the MFI turned out to be 14 MFI in assay [1] and 16 MFI in assay [2].
